Entries after “also recorded” stand apart in the source; their conditions may differ.
Assays:
[1] = Relaxivity measurements (60 MHz, 37 °C); type: physicochemical; conditions: 60 MHz (1.4 T), Bruker minispec mq60, Gd^3+ concentration by ICP-OES
Experimental: Relaxivity measurements were performed on a Bruker® minispec mq60NMR analyzer (Brucker, USA) at 37 °C at 1.4 T (60 MHz). Samples were measured at a specific Gd^3+ concentration (mM), calculated from ICP-OES. The longitudinal relaxation time T1 and the transverse relaxation time T2 (s) were measured at 60 MHz and at 37 °C. Then the relaxivities ri (s^−1 mM^−1) were obtained according to the following formula: 1/Timeasured=1/Tiwater+riGd^3+ where i = 1 or 2.

[2] = system: Aβ amyloid plaques (APPswe/PS1A246E/TTR(−/−) transgenic mouse brain sections); test: Immunohistochemistry on AD mouse brain sections with amyloid plaques; conditions: 10 months old APPswe/PS1A246E/TTR(−/−) hippocampus, nanoparticles at 3 nM Cy5.5 (2 mM Gd^3+) with 3 mM ungrafted nanoparticles, or PIB 1 µM, 1h30 RT, fluorescence
[3] = system: V30M-TTR fibrils; test: SPR binding to V30M-TTR fibrils; parameters: species or system human; conditions: 800 R.U. V30M-TTR fibrils, 0.02–6.4 mM in peptide, R.U. 141 s after end of injection
Description: N-(3-Dimethylaminopropyl)-N′-ethylcarbodiimide hydrochloride (EDC, >98.0 %), N-hydroxysuccinimide (NHS, >97.0 %), gadolinium chloride hexahydrate ([GdCl3·6H2O], 99 %), sodium hydroxide (NaOH, 99.99 %), hydrochloric acid (HCl, 36.5–38 %), sodium chloride (NaCl, >99.5 %), dimethyl sulfoxide (DMSO, >99.5 %), acetonitrile (CH3CN, >99.9 %), trifluoroacetic acid (TFA, >99 %), trinitrobenzene sulfonic acid (TNBS) 1 M in water, sodium dodecyl sulfate (SDS, >99 %), (3-aminopropyl)triethoxysilane (APTES, >98 %), tetraethyl orthosilicate (TEOS; >98 %) and Poly(ethylene glycol) bis(carboxymethyl) ether (PEG) with an average molecular weight Mn = 250 g mol^−1 were purchased from Aldrich Chemical (France) and used without further purification. Diethylene glycol (DEG, 99 %) was purchased from SDS Carlo Erba (France). Acetone (reagent grade) was purchased from Sodipro (France) and was used as received. […] Recombinant human V30M-TTR protein was obtained following cloning its gene in the plasmid pQE81L and its expression in Escherichia coli (M15). Briefly, bacterial cultures were performed in LB medium, 100 µg mL^−1 ampicillin and 25 µg mL^−1 kanamycin, at 37 °C, under constant orbital shaking. Protein production was pursued for 7 h after IPTG induction when the absorbance was 0.700 at 600 nm. The bacterial pellet of 50 mL of culture was resuspended in sodium phosphate 50 mM, pH 8, sodium chloride 300 mM, imidazole 10 mM, betamercaptoethanol 10 mM, supplemented with 500 µL of a protease inhibitor, phenylmethylsulfonyl fluoride (Sigma, #78830), at 1 mM final and a cocktail of protease inhibitor EDTA-free (Roche, #11873580001). The suspension was sonicated during a total time of 6 min with repeated cycles of 5/7 s off with an amplitude of 20 %, then centrifuged during 30 min at 100,000g, to pellet cellular debris. The supernatant was filtered on 0.2 µm cut off filters. The purification of the protein was performed on immobilized metal ion chromatography (Chelating Fast Flow, Amersham #17057501), and dialyzed against 20 mM·NH4HCO3 (membrane cutoff 1/10,000; 3500 MWCO Spectrapore). Finally, the protein was freeze-dried. The protein quality was checked by SDS PAGE gel 15 %. The Pittsburgh compound-B (PIB) derivative molecule was synthetized according to the procedure already described in the literature. Starting from the p-anisidine, the p-nitrobenzoyl amide was readily obtained and then the corresponding thioamide was prepared by reaction with Lawesson’s reagent. Finally, an oxidative cyclization was done to lead to the benzothiazole derivative, and the nitro function was reduced to give compound (Synthesis’ details in Additional file 1). […]

[4] = target: T1, Aβ(1–42) fibrils (Homo sapiens, UniProt P05067); test: Partition (spectrofluorometric) binding to Aβ(1–42) fibrils; conditions: 20 µM fibrils, 2 µM nanoparticles, saturated with 3 mM AGuIX, 60 min; data not shown
T1 construct: Freeze-dried Aβ(1–42) peptide (Genecust) was dissolved in distilled water at pH 11.0; purchased Genecust (Luxembourg)
T1 sequence (P05067 672-713): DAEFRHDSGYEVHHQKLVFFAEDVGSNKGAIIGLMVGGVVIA

[5] = target: T1, Aβ(1–42) fibrils; test: SPR binding to Aβ(1–42) fibrils
Experimental: The surface plasmon resonance assays were performed using a BIAcore® 2000 biosensor. The instrument was equipped with a CM3 sensor chip (GE Healthcare®, Uppsala, Sweden). The interaction studies took place on a gold chip functionalized with carboxymethylated dextran. The sensor surface itself form one wall of a flow cell, which is an integral part of the microfluidic system. All SPR experiments were performed at 25 °C. HEPES buffer (HBS-P, GE Healthcare®, 0.01 M HEPES, 0.15 M NaCl, 0.005 % surfactant p20) was used as running buffer.
For immobilization, amine coupling reagents were obtained from the GE Healthcare® kit containing 0.2 M EDC in water, 0.05 M NHS in water and ethanolamine-HCl pH 8.5. […] Aβ(1–42) and V30M-TTR fibrils were immobilized on the flow cell 2 and 4 respectively of a CM3 sensor chip with an amine coupling reaction. After the chip activation by EDC/NHS during 7 min, the fibrils were injected at: 10 µM in 10 mM sodium acetate pH 4 at a flow rate of 5 µL min^−1 during 20 min for Aβ(1–42) fibrils or at 0.36 µM in 10 mM sodium acetate pH 5.5 at a flow rate of 5 µL min^−1 during 100 min for V30M-TTR fibrils. […]
Biacore® experiments gathered data from 3 cycles for each studied analyte. […] Results of the interaction between the analytes and the Aβ(1–42) or V30M-TTR fibrils were represented on a sensorgram expressed as respectively FC2-1 or FC4-3 (RU-RUdextran) versus time. […]

[6] = system: SH-SY5Y; test: MTT cell viability
Experimental: The innocuousness of the grafted Nps was assessed using a neuronal cell line SH-SY5Y. The cell viability was assessed using the 3-(4,5-dimethylthiazol-2yl)-2,5-diphenyltetrazolium bromide (MTT) assay^63. SH-SY5Y cells were cultured in DMEM/F12 medium supplemented with 10 % fetal bovine serum and 1 % penicillin -streptomycin /amphotericin B. For the assay, the cells were plated at a density of 50 000 cells/well in 200 µl of medium. […] Nps were added to the cells and incubated at 37 °C, 5 % CO2. One hour later, 10 μL of MTT solutions (12 mM) was added into each well, and the plates were incubated for another 2 h at 37°C, 5% CO2. The culture medium was removed, and the precipitated cells were lysed using DMSO. After 10 minutes, the purple crystals were dissolved completely; the cell viability was calculated from the absorbance signals measured by a plate reader (Tecan Infinite M200) at 540 nm. The absorbance of the wells containing medium-only, corresponding to the background, were subtracted from the value of each reading. Data are expressed in % of cell viability, each MTT analysis was carried out on triplicate samples.

[7] = Dynamic light scattering, hydrodynamic diameter; type: physicochemical; conditions: DLS, Zetasizer NanoS, 532 nm, 10 mM Gd^3+, 0.2 µm filtered; measurement repeated 8 times
Experimental: Hydrodynamic diameters (DH) of the Nps were determined with a Zetasizer NanoS (laser He–Ne 532 nm) from Malvern Instrument® (5 mW, with 173° NIBS detector and narrow band filter). Attenuator was optimized by the device and position was set to the center of the cell. To perform the measurement, 1 mL of nanoparticles suspensions at 10 mM Gd^3+ was poured in a 12 mm square polystyrene disposable cuvette after filtration on a 0.2 µm cut-off nylon filter. Each measurement was repeated 8 times.

[8] = system: amyloid fibrils; conditions: cited from earlier work
Description: Currently, magnetic resonance imaging (MRI) is the preferred neuroimaging examination for AD as it allows an accurate measurement of brain structures’ volume, although a decrease of this latter appears to be a nonspecific and late feature of cerebral vascular diseases’ progression. Thus, studies are under way to develop specific imaging markers for different types of dementia, including markers of senile plaques for very-high-field MRI and positron emission tomography (PET). A better characterization of the amyloid plaque presence and load in the brain can be also expected from i ...

[9] = system: fibrils; test: Cy5.5 staining of fibrils in vitro (personal data); type: binding; conditions: in vitro on fibrils (personal data)
[10] = system: Aβ amyloid plaques (APPswe/PS1A246E/TTR(−/−) transgenic mouse brain sections); conditions: cited from earlier work
Experimental: The specificity of functionalized nanoparticles binding was verified, by incubating nanoparticles without grafted-peptides, AGuIX@PEG@Cy5.5, on brain section containing amyloid burden. […] Whereas, various other cyanine derivative d ...

In the case of `CNC[C@H](O)[C@@H](O)[C@H](O)[C@H](O)CO.O=C([O-])CN1CCN(CC(=O)[O-])CCN(CC(=O)O)CCN(CC(=O)[O-])CC1.[Gd+3]` [DOTAREM®, reference compound], the “r1 (longitudinal relaxivity)” value [1] is reported as 3.4 s⁻¹ mM⁻¹.
For KLVFF [AGuIX@PEG@KLVFF@Cy5.5], the “binding/staining of amyloid plaques in AD mouse brain sections” value (shortened to “binding/staining of amyloid plaques”) [2] was “beta-amyloid plaques were visualized; also recorded: bind selectively amyloid plaque constituted by Aβ protein”, the “binding/staining of amyloid plaques” value ([2]; listed as KLVFF-grafted) was “recognized and bound the Aβ amyloid plaque localized in the mouse hippocampus” and the “interaction with V30M-TTR fibrils” value [3] was “no specific interaction”. For the same molecule, the “interaction with V30M-TTR fibrils” value ([3]; listed as KLVFF-grafted) was “did not interact with V30M-TTR fibrils”.
In the case of LPFFD [AGuIX@PEG@LPFFD@Cy5.5], the “Cy5.5 fluorescence associated with fibrils” value [4] is reported as “no fluorescence has been detected associated with fibrils”, the “binding/staining of amyloid plaques” value [2] is reported as “beta-amyloid plaques were visualized; also recorded: bind selectively amyloid plaque constituted by Aβ protein” and the “binding/staining of amyloid plaques” value ([2]; listed as LPFFD-grafted) is reported as “recognized and bound the Aβ amyloid plaque localized in the mouse hippocampus”. The “interaction with V30M-TTR fibrils” value [3] was “no specific interaction”, the “interaction with V30M-TTR fibrils” value ([3]; listed as LPFFD-grafted) was “did not interact with V30M-TTR fibrils” and the “interaction (R.U. remaining 141 s after end of injection)” value ([5]; 2.5 mM in Gd^3+) was “interact with Aβ(1–42) fibrils”. For the same molecule, the “interaction over nanoparticle concentration range” value ([5]; 0.02–6.4 mM in peptide, R.U. 141 s after end of injection) was “displayed an interaction on Aβ(1–42) fibrils (blue curves) dependent on nanoparticle concentrations injected”, the cells alive ([6]; 5 mM Gd^3+, MTT) was “more than 75%” and the cells alive ([6]; 1 h incubation, 0.5 to 2 mM Gd^3+, MTT) was “more than 80%”. The “toxic effects on cells” value ([6]; MTT, up to 5 mM Gd^3+) was “do not exhibit any toxic effects on cells”.
With LPFFD [AGuIX@PEG@LPFFD] the “r1 (longitudinal relaxivity)” value [1] was 13.2 s⁻¹ mM⁻¹, the hydrodynamic diameter [7] was 3.2 ± 0.8 nm and the “cells alive (Fig. S7)” value ([6]; 1 h at 37 °C, 5 % CO2, up to 2 mM nanoparticles, MTT 2 h, 540 nm, triplicate) was “more than 80%”.
In the case of KLVFF [AGuIX@PEG@KLVFF], the “r1 (longitudinal relaxivity)” value [1] is reported as 14.1 s⁻¹ mM⁻¹ and the hydrodynamic diameter [7] is reported as 3.5 ± 0.9 nm.
In the case of `CNc1ccc(-c2nc3ccc(O)cc3s2)cc1` [Pittsburgh compound B, [^11C]2-(4′-methylaminophenyl)-6-hydroxybenzothiazole], the “binding to amyloid fibrils” value [8] is listed as “binds with high affinity to any amyloid fibrils”.
For Cy5.5 [reference compound], the “binding/staining of amyloid plaques” value [2] is given as “non-binding of Cy5.5 dye to amyloid plaque; also recorded: background due to the Cy5.5 restricted to blood vessels”, the “staining of fibrils by Cy5.5 molecule” value [9] is given as “does not stain fibrils” and the “staining by Cy5.5 on brain section of AD mouse model” value [10] is given as “does not stain fibrils”.
